According to patent US20060177449A1:

Legend:
[1] = target: monoclonal antibody 23L-2Ca; assay: competitive EIA: unlabeled ligand varied against HRP-labeled [Cys^19-NH2] rat TGR23-2 ligand (1-19) for 23L-2Ca (FIG. 7)
[2] = target: monoclonal antibody 23L-1Na; assay: competitive EIA: unlabeled ligand varied against HRP-labeled [Cys^19-NH2] rat TGR23-2 ligand (1-19) for 23L-1Na (FIG. 5)
[3] = target: monoclonal antibody 23L-1Ca; assay: competitive EIA: unlabeled ligand varied against HRP-labeled [Cys^19-NH2] rat TGR23-2 ligand (1-19) for 23L-1Ca (FIG. 6)

| IC50 [1] | IC50 [2] | IC50 [3] | Binder |
| --- | --- | --- | --- |
| 40 nM | 60 nM |  | SFRNGVGSGAKKTSFRRAKQ [mouse TGR23-2 ligand] |
| 20 nM | 100 nM | 20 nM | SFRNGVGSGVKKTSFRRA [rat TGR23-2 ligand] |
|  | 60 nM |  | SFRNGVGTGMKKTSFQRAKS [human TGR23-2 ligand] |
